Patent US20200216495A1 (ADRX, published 2020)
Where “and” joins values, the source holds several entries; their conditions need not be identical. Identical values can stand only once. Square brackets hold non-standard residues; d marks the D form. Ends that are not written are not given here. dCit = NC(=O)NCCC[C@@H](N)C(=O)O; dNle = CCCC[C@@H](N)C(=O)O

Biological target: Tau40 P301L protein (human)
Test: cell-based or functional assay

IC50, Tau40 assay (ThT) | Binder
540 nM | [dW][dR][dL][dR][dI][dM][dW] [wrlrimw (PEPTIDE ID NO: 452)]
510 nM | [dR][dL][dK][dI][dR][dI][dH][dY] [rlkirihy (PEPTIDE ID NO: 451)]
930 nM | [dL][dK][dI][dK][dI][dH][dY] [lkikihy (PEPTIDE ID NO: 233)]
1040 nM | [dW][dR][dM][dR][dI][dH][dW] [wrmrihw (PEPTIDE ID NO: 246)]
970 nM | [dL][dR][dI][dK][dI][dR][dF][dH] [lrikirfh (PEPTIDE ID NO: 421)]
1010 nM | [dL][dK][dL][dR][dI][dR][dH][dH] [lklrirhh (PEPTIDE ID NO: 415)]
910 nM | [dF][dR][dL][dK][dV][dR][dW][dW] [frlkvrww (PEPTIDE ID NO: 231)]
910 nM | [dW][dR][dL][dK][dV][dR][dW][dR] [wrlkvrwr (PEPTIDE ID NO: 230)]
650 nM | [dL][dK][dI][dR][dI][dH][dY][dL] [lkirihyl (PEPTIDE ID NO: 193)]
920 nM | [dK][dL][dK][dL][dR][dW][dW] [klklrww (PEPTIDE ID NO: 448)]
900 nM | [dE][dW][dR][dL][dK][dV][dR][dW] [ewrlkvrw (PEPTIDE ID NO: 229)]
940 nM | [dT][dL][dK][dI][dR][dI][dH][dY] [tlkirihy (PEPTIDE ID NO: 235)]
1010 nM | [dW][dR][dL][dK][dE][dR][dW][dW] [wrlkerww (PEPTIDE ID NO: 241)]
1090 nM | [dL][dK][dI][dK][dL][dR][dH][dY] [lkiklrhy (PEPTIDE ID NO: 144)]
970 nM | [dL][dR][dI][dR][dL][dH][dY][dH] [lrirlhyh (PEPTIDE ID NO: 420)]
1000 nM | [dL][dR][dI][dR][dI][dH][dY][dH] [lririhyh (PEPTIDE ID NO: 239)]
1040 nM | [dF][dL][dK][dI][dR][dI][dH][dY] [flkirihy (PEPTIDE ID NO: 247)]
1030 nM | [dL][dK][dI][dR][dI][dCit][dY] [lkirizy (PEPTIDE ID NO: 244)]
940 nM | [dW][dW][dL][dR][dI][dH][dW] [wwlrihw (PEPTIDE ID NO: 425)]

IC50, Tau40 assay (ThT) | Binder
910 nM | [dF][dK][dI][dR][dI][dH][dY][dF] [fkirihyf (PEPTIDE ID NO: 232)]
1080 nM and 1100 nM | [dF][dK][dL][dK][dI][dK][dW] [fklkikw (PEPTIDE ID NO: 132)]
1000 nM | [dW][dR][dL][dR][dV][dR][dW][dW] [wrlrvrww (PEPTIDE ID NO: 238)]
1010 nM | [dK][dL][dK][dI][dR][dI][dH][dY] [klkirihy (PEPTIDE ID NO: 243)]
960 nM | G[dL][dK][dI][dR][dI][dH][dY] [glkirihy (PEPTIDE ID NO: 236)]
930 nM | [dW][dW][dR][dL][dK][dV][dR][dW] [wwrlkvrw (PEPTIDE ID NO: 234)]
900 nM | [dL][dK][dI][dR][dI][dR][dF][dH] [lkirirfh (PEPTIDE ID NO: 414)]
1070 nM | [dF][dK][dL][dR][dL][dR][dH][dW] [fklrlrhw (PEPTIDE ID NO: 123)]
580 nM | [dW][dR][dL][dR][dI][dH][dM] [wrlrihm (PEPTIDE ID NO: 453)]
1050 nM | [dF][dK][dL][dK][dL][dR][dW] [fklklrw (PEPTIDE ID NO: 413)]
940 nM | [dW][dK][dL][dK][dL][dW][dW][dW] [wklklwww (PEPTIDE ID NO: 14)]
1080 nM | [dW][dR][dL][dK][dV][dA][dW] [wrlkvaw (PEPTIDE ID NO: 248)]
1010 nM | [dL][dK][dL][dH][dL][dH][dF][dH] [lklhlhfh (PEPTIDE ID NO: 434)]
970 nM | [dL][dK][dI][dW][dI][dY][dY][dH] [lkiwiyyh (PEPTIDE ID NO: 237)]
1010 nM | [dM][dR][dL][dR][dI][dH][dW] [mrlrihw (PEPTIDE ID NO: 242)]
1000 nM | [dL][dK][dI][dR][dI][dH][dL][dH] [lkirihlh (PEPTIDE ID NO: 240)]
1040 nM | [dL][dK][dI][dR][dI][dH][dY] [lkirihy (PEPTIDE ID NO: 245)]
930 nM and 980 nM | [dL][dQ][dF][dD][dL][dQ][dY][dF] [lqfdlqyf (PEPTIDE ID NO: 142)]

Biological target: Ac-VQIINK-NH2 (SEQ ID NO: 23) (N-terminal acetyl (Ac); C-terminal amide (NH2))
Test: cell-based or functional assay

VQIINK Inhibition IC50 [µm] | Binder
0.69 | [dF][dR][dL][dK][dI][dR][dW] [frlkirw]
0.76 | [dL][dK][dI][dR][dI][dCit][dY] [lkirizy]
1.15 | [dF][dK][dL][dK][dL][dW][dW][dF] [fklklwwf]
0.82 | [dF][dR][dI][dR][dI][dH][dH][dW] [fririhhw]
0.77 | [dL][dE][dI][dR][dI][dH][dY] [leirihy]
0.94 | [dW][dK][dV][dQ][dV][dR][dL][dW] [wkvqvrlw]
1.1 | [dF][dH][dI][dR][dI][dR][dH][dW] [fhirirhw]
0.26 | [dW][dE][dL][dK][dV][dR][dW] [welkvrw]
0.97 | [dW][dQ][dL][dK][dV][dR][dW] [wqlkvrw]
0.65 | [dL][dK][dI][dE][dI][dH][dY] [lkieihy]
1.15 | [dL][dE][dI][dK][dI][dR][dH][dW] [leikirhw]
1.03 | [dF][dE][dL][dK][dL][dR][dW][dH] [felklrwh]
1.08 | [dW][dL][dR][dV][dQ][dV][dK][dW] [wlrvqvkw]
0.76 | [dF][dR][dL][dK][dV][dR][dW][dW] [frlkvrww]
0.67 | [dL][dR][dL][dK][dV][dR][dW][dW] [lrlkvrww]
0.79 | [dW][dR][dL][dR][dV][dR][dW][dW] [wrlrvrww]
0.26 | [dL][dK][dI][dNle][dI][dH][dY] [lkiuihy]
0.93 | [dL][dR][dL][dK][dV][dR][dW][dL] [lrlkvrwl]
1.05 | [dL][dK][dI][dR][dI][dE][dY] [lkiriey]
0.96 | [dH][dY][dH][dI][dR][dI][dK][dL] [hyhirikl]
0.17 | [dL][dK][dI][dY][dI][dH][dY] [lkiyihy]
0.75 | [dW][dK][dV][dK][dI][dQ][dY][dH] [wkvkiqyh]
0.41 | [dW][dN][dL][dK][dV][dR][dW] [wnlkvrw]
